The RNAGym collection of RNA variant scans (doi:10.1073/pnas.2313332121)

B1: TPR t1 (parent)
chain: GACCAAUCUGCCCUCAGAGCUCGAGAACAUCUUCGGAUGCAGAGGAGGCAGGCUUCGGUGGCGCGAUAGCGCCAACGUCCUCAACCUCCAAUGCAUCCCACCACAUGAUGAUGCCUGAAGAGCCUUGGUUUUUUG

Variants of: B1
Test: polymerase ribozyme fitness, log enrichment relative to wild type (log ratio); higher = more active; in vitro selection for triplet polymerase activity
Procedure, shortened: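 One round of in vitro selection, in triplicate, was applied to PCR-built, transcribed mutant libraries of each subunit of a heterodimeric triplet polymerase ribozyme. The steps were annealing with a biotinylated primer, partner subunit and triplets, incubation frozen at −7 °C, gel excision of extended constructs, streptavidin-bead capture and RT-PCR. Fitness is the logarithm, base 2, of genotype enrichment over wild-type enrichment from inverse-variance-weighted replicate averages of Illumina-sequenced inputs and outputs, keeping genotypes with ≥10 input reads and ≥1 read per output.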

Compared with C85A C104U, C86A A91U is lower in “polymerase ribozyme fitness (log ratio)” value: -1.07 for the first, -2.01 for the second.

C89U G122A and C89U G122U are within 0.2 log units of each other in “polymerase ribozyme fitness (log ratio)” value: -0.697 for the first, -0.616 for the second.

Compared with A91C C104U, G93A A95C A121U is higher in “polymerase ribozyme fitness (log ratio)” value: -1.08 for the first, 0.651 for the second.

Going from U92A A111G to G93C G127A, the “polymerase ribozyme fitness (log ratio)” value rises from -3.82 to -1.89.

Going from U87C A105G to C86A G120U, the “polymerase ribozyme fitness (log ratio)” value rises from -1.78 to -0.761.

Compared with A84U U130C, A95C U109A U112C is lower in “polymerase ribozyme fitness (log ratio)” value: 0.517 for the first, -4.49 for the second.

Going from C88G G117C U133A to C89U G120C, the “polymerase ribozyme fitness (log ratio)” value rises from -3.79 to 0.737.

Going from A84U U133G to C85A G110A G127A, the “polymerase ribozyme fitness (log ratio)” value falls from -0.42 to -3.71.

First: U87A C88A U96C
Second: U96A U116G U130A
The “polymerase ribozyme fitness (log ratio)” value of the first is higher: -1.02 for the first, -3.12 for the second.

First: A90C C123U
Second: C86G G120A
The “polymerase ribozyme fitness (log ratio)” value of the first is higher: 0.206 for the first, -0.356 for the second.

First: U92G A108U U112A G113A
Second: C86A U92A G93C G120A
The “polymerase ribozyme fitness (log ratio)” value of the first is lower: -6.92 for the first, -4.42 for the second.

C88G U130C and C88G U130G are within 0.2 log units of each other in “polymerase ribozyme fitness (log ratio)” value: -0.362 for the first, -0.5 for the second.

First: G93A C98U C124G
Second: A84U G117C C124G
The “polymerase ribozyme fitness (log ratio)” value of the first is higher: 0.653 for the first, -1.4 for the second.

Compared with A90U U112G, G93A C115G is higher in “polymerase ribozyme fitness (log ratio)” value: -3.12 for the first, -2.4 for the second.

Going from G93C U112G to A95U C114A, the “polymerase ribozyme fitness (log ratio)” value falls from -0.938 to -1.43.

Going from C86U A100C G110U U129C to A84U C115A U125G, the “polymerase ribozyme fitness (log ratio)” value rises from -4.69 to -0.872.

First: C85G C97U
Second: A90C C104U A105C
The “polymerase ribozyme fitness (log ratio)” value of the first is higher: -2.99 for the first, -5.64 for the second.

Going from C94U G117C U130A to A84C C124G, the “polymerase ribozyme fitness (log ratio)” value rises from -6.35 to 1.9.

First: A84C C124A
Second: U87G A111U
The “polymerase ribozyme fitness (log ratio)” value of the first is higher: 1.76 for the first, -2.77 for the second.

Compared with C89A A105C, A91C is higher in “polymerase ribozyme fitness (log ratio)” value: -4.64 for the first, -1.4 for the second.

Compared with A91U, A91G is higher in “polymerase ribozyme fitness (log ratio)” value: -1.81 for the first, -0.586 for the second.

First: G93A A95G
Second: C89U C99G A100C C123G
The “polymerase ribozyme fitness (log ratio)” value of the first is higher: -1.81 for the first, -7.05 for the second.

Going from U87C A103U to C94A C98A, the “polymerase ribozyme fitness (log ratio)” value falls from -3.8 to -6.59.

First: C86U G93U U106C C124U U126A
Second: A90C A100U A111G
The “polymerase ribozyme fitness (log ratio)” value of the first is lower: -2.34 for the first, -1.79 for the second.

Going from G93U C124G to A90U G93A U112C, the “polymerase ribozyme fitness (log ratio)” value falls from 0.697 to -0.194.

Going from C86A C114U A119U to A95G A111C G113A A119C G120C, the “polymerase ribozyme fitness (log ratio)” value falls from -3.57 to -3.77.

Going from A95C C97U to C86U U87A C101A U129G, the “polymerase ribozyme fitness (log ratio)” value falls from -2.11 to -3.91.

First: U87G A121C
Second: A95U G113A
The “polymerase ribozyme fitness (log ratio)” value of the first is higher: 1.82 for the first, -2.53 for the second.

Compared with A90C C115A, C86G C101A is lower in “polymerase ribozyme fitness (log ratio)” value: -0.409 for the first, -1.32 for the second.

Going from U96A A121C U126A to C86U C114U, the “polymerase ribozyme fitness (log ratio)” value falls from -0.501 to -1.7.

Compared with U92G C101A, A90U G110U is higher in “polymerase ribozyme fitness (log ratio)” value: -4.03 for the first, -3.55 for the second.

Compared with C89A C123U C124G, G93U G120A U125A is lower in “polymerase ribozyme fitness (log ratio)” value: 1.14 for the first, 0.0882 for the second.

Compared with C88U A121C, A84U C115A is lower in “polymerase ribozyme fitness (log ratio)” value: 1.77 for the first, -0.457 for the second.

Compared with C85A U116C, A90C U92C C102A G120C U132A is lower in “polymerase ribozyme fitness (log ratio)” value: -2.08 for the first, -4.27 for the second.

Compared with G93C U109A G117U G120C, C88A A121C is higher in “polymerase ribozyme fitness (log ratio)” value: -6.83 for the first, 1.66 for the second.

Going from C86G C89A C114A to C89U U109C, the “polymerase ribozyme fitness (log ratio)” value rises from -4.58 to -3.31.

First: A91G U112A G127C
Second: C88U G120U U132C
The “polymerase ribozyme fitness (log ratio)” value of the first is lower: -1.56 for the first, 0.106 for the second.

A91C A118G and G93U C115A are within 0.2 log units of each other in “polymerase ribozyme fitness (log ratio)” value: -2.33 for the first, -2.49 for the second.

G93U C115U and C88G G120A U129A are within 0.2 log units of each other in “polymerase ribozyme fitness (log ratio)” value: -1.63 for the first, -1.48 for the second.

First: C94U A108U C114U U131G
Second: C88U U129C
The “polymerase ribozyme fitness (log ratio)” value of the first is lower: -7.59 for the first, -0.178 for the second.

Going from A90U U116C to U92A G110C, the “polymerase ribozyme fitness (log ratio)” value falls from -1.26 to -6.13.

Compared with U92A G110A, C85U A91C A95G is higher in “polymerase ribozyme fitness (log ratio)” value: -5.07 for the first, -2.23 for the second.

Going from C88A C101U A111U to C89A A111U G122A, the “polymerase ribozyme fitness (log ratio)” value falls from -3.57 to -4.54.

Compared with G93U U112G, C88A U133A is higher in “polymerase ribozyme fitness (log ratio)” value: -1.63 for the first, 0.0129 for the second.

Going from C94A U112A to C86A A90U, the “polymerase ribozyme fitness (log ratio)” value falls from 1.02 to -1.19.

First: C86A A90G
Second: A84C U116C
The “polymerase ribozyme fitness (log ratio)” value of the first is lower: 0.132 for the first, 0.658 for the second.

Going from U92C U132C to U96A G110U, the “polymerase ribozyme fitness (log ratio)” value falls from -1.85 to -2.56.

Compared with A90U G117U, C85U G120A is higher in “polymerase ribozyme fitness (log ratio)” value: -3.37 for the first, -0.267 for the second.

First: C88U G93A
Second: U87A U112A
The “polymerase ribozyme fitness (log ratio)” value of the first is lower: -0.936 for the first, 1.76 for the second.

Compared with U87A G120U, G93A G113U C114G is lower in “polymerase ribozyme fitness (log ratio)” value: 0.227 for the first, -2.9 for the second.

Going from U87C G107U to U92A C123A, the “polymerase ribozyme fitness (log ratio)” value rises from -4.55 to -3.22.

Compared with U92A C123G, A95G U112C C124U is higher in “polymerase ribozyme fitness (log ratio)” value: -0.636 for the first, 1.01 for the second.

Compared with C85G U130A G135U, A84G C88U is higher in “polymerase ribozyme fitness (log ratio)” value: -3.18 for the first, -0.134 for the second.

Compared with C85G U130G, A90G C104U U112C A121U U130C is higher in “polymerase ribozyme fitness (log ratio)” value: -2.71 for the first, 2.04 for the second.

Going from C88A C123U to A84U C97A, the “polymerase ribozyme fitness (log ratio)” value falls from 1.08 to -5.72.

Going from G93U U133A to U87A C88U, the “polymerase ribozyme fitness (log ratio)” value falls from -0.793 to -1.46.

Compared with A90C C94U, C86U G113A G127C is lower in “polymerase ribozyme fitness (log ratio)” value: -1.34 for the first, -1.64 for the second.

U87C G120U and C86U C94U C115A are within 0.2 log units of each other in “polymerase ribozyme fitness (log ratio)” value: -1.06 for the first, -0.874 for the second.

Compared with A91G C97A A118U, U87A G122A is higher in “polymerase ribozyme fitness (log ratio)” value: -5.26 for the first, -0.168 for the second.

First: A91G U106G A111G
Second: C86A C115A G128A U133A
The “polymerase ribozyme fitness (log ratio)” value of the first is higher: -3.06 for the first, -4.43 for the second.

First: G93C C102A U116G
Second: C85A G113C G122C U129C
The “polymerase ribozyme fitness (log ratio)” value of the first is lower: -5.28 for the first, -4.98 for the second.

Going from U96A G117C to C89A U129G, the “polymerase ribozyme fitness (log ratio)” value rises from -5.1 to -2.64.

Compared with C94A G135U, U87A A105U U116C is lower in “polymerase ribozyme fitness (log ratio)” value: -1.66 for the first, -3.54 for the second.

First: U96C C123G G127C
Second: C85A C102U A121U C124U
The “polymerase ribozyme fitness (log ratio)” value of the first is higher: -0.432 for the first, -1.07 for the second.

Compared with G93C G117C, G93U G117U is higher in “polymerase ribozyme fitness (log ratio)” value: -4.74 for the first, -3.63 for the second.

Compared with U87A C89U, C94A A105U A121C is lower in “polymerase ribozyme fitness (log ratio)” value: 0.835 for the first, -2.21 for the second.

Compared with C89A C124U, G93C G110U G120A is lower in “polymerase ribozyme fitness (log ratio)” value: 0.618 for the first, -3.34 for the second.

Compared with A95C G113C C124G, C85U U112A G122U U126G is lower in “polymerase ribozyme fitness (log ratio)” value: -1.76 for the first, -4.47 for the second.

Going from A90G U112A to G93U U96G C124A, the “polymerase ribozyme fitness (log ratio)” value falls from 1.08 to 0.232.

Compared with U92A C124U, A95U C115A is higher in “polymerase ribozyme fitness (log ratio)” value: -1.43 for the first, -1.22 for the second.

Going from A95G U109C to C85U G113A, the “polymerase ribozyme fitness (log ratio)” value rises from -5.61 to -2.02.

Going from G93C G135C to U92A U109G, the “polymerase ribozyme fitness (log ratio)” value falls from -1.15 to -5.94.

First: C89U A100U
Second: U87A C124U
The “polymerase ribozyme fitness (log ratio)” value of the first is lower: -1.41 for the first, 1.04 for the second.

First: U96A G128U
Second: C88A C101A
The “polymerase ribozyme fitness (log ratio)” value of the first is lower: -1.89 for the first, -1.2 for the second.

First: C85G A90U G127C U133A
Second: C86U G110C
The “polymerase ribozyme fitness (log ratio)” value of the first is lower: -4.53 for the first, -3.72 for the second.

Compared with C94G C101U, C85G G110A U126C is lower in “polymerase ribozyme fitness (log ratio)” value: -1.46 for the first, -2.99 for the second.

Compared with C89G G113U, C89G G113A is higher in “polymerase ribozyme fitness (log ratio)” value: -3.93 for the first, -3.42 for the second.

Going from C94G U131G U132G to C85A C101G U109G G117C, the “polymerase ribozyme fitness (log ratio)” value falls from -1.88 to -7.01.

First: U92A U106C C114A
Second: C94U U116C G128U
The “polymerase ribozyme fitness (log ratio)” value of the first is lower: -4.09 for the first, -3.48 for the second.

Going from C89A C123U to U87G C124A, the “polymerase ribozyme fitness (log ratio)” value rises from -0.0853 to 0.735.

Compared with A90G U125G, C89G G110U is lower in “polymerase ribozyme fitness (log ratio)” value: -0.567 for the first, -2.85 for the second.

Going from C85U U109A to A91C C123U, the “polymerase ribozyme fitness (log ratio)” value rises from -6.03 to -0.37.

Going from C94U G110U to A95U G113A G127A, the “polymerase ribozyme fitness (log ratio)” value falls from -2.05 to -2.73.

With U96A C99G G110C the “polymerase ribozyme fitness (log ratio)” value was -6.97.
